Experimental data taken from article doi:10.1101/2022.01.21.477187.

Biological target: GMPCPP-stabilised rhodamine microtubules
Assay: single-molecule TIRF motility assay

| Substance | residency time on the microtubule | landing rate (events μm^−1 min^−1) | processive landing rate (events μm^−1 min^−1) |
| --- | --- | --- | --- |
| CENP-E483 with a GCN4 leucine zipper domain fused to its C terminus (from UniProt Q02224 1-483) | 6.36 s |  |  |
| full-length human CENP-E-mNeonGreen, Q02224 1-2701 | 37.1 s | 0.147 | 0.009 |
